Measurements taken from IntAct's records for PubMed 31515488.

B1: Isoform 1 of Cyclin-dependent kinase 2-interacting protein (Homo sapiens), Q9BW66-1 (parent)
chain: MEAKTLGTVTPRKPVLSVSARKIKDNAADWHNLILKWETLNDAGFTTANNIANLKISLLNKDKIELDSSSPASKENEEKVCLEYNEELEKLCEELQATLDGLTKIQVKMEKLSSTTKGICELENYHYGEESKRPPLFHTWPTTHFYEVSHKLLEMYRKELLLKRTVAKELAHTGDPDLTLSYLSMWLHQPYVESDSRLHLESMLLETGHRAL
partner: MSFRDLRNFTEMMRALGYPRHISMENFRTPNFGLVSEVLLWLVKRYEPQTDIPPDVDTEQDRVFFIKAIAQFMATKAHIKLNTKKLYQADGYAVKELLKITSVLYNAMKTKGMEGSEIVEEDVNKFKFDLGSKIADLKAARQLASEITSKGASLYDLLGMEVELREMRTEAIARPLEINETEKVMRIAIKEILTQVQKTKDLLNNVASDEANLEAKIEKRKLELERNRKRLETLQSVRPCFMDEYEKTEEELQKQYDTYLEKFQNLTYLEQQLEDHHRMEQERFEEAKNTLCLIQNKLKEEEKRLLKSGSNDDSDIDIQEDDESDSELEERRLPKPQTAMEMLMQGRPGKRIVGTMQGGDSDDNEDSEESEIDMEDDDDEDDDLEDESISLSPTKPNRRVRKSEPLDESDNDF
B2: Probable RNA-binding protein EIF1AD (Homo sapiens), Q8N9N8 (parent)
chain: MSQATKRKHVVKEVLGEHIVPSDQQQIVRVLRTPGNNLHEVETAQGQRFLVSMPSKYRKNIWIKRGDFLIVDPIEEGEKVKAEISFVLCKDHVRSLQKEGFWPEAFSEVAEKHNNRNRQTQPELPAEPQLSGEESSSEDDSDLFVNTNRRQYHESEEESEEEEAA
partner: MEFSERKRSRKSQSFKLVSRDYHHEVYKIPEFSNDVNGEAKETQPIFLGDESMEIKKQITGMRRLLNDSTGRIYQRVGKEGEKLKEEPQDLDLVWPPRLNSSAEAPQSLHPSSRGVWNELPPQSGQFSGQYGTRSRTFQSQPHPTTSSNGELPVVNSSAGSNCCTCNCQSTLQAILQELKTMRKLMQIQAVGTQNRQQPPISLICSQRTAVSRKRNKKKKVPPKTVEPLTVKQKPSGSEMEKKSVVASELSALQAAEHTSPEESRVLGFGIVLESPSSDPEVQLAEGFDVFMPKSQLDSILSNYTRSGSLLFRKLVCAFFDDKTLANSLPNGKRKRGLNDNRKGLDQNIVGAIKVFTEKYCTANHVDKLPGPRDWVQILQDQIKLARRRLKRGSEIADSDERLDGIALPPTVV
B3: C-type lectin domain family 1 member A (Homo sapiens), Q8NC01 (parent)
chain: MQAKYSSTRDMLDDDGDTTMSLHSQGSATTRHPEPRRTEHRAPSSTWRPVALTLLTLCLVLLIGLAALGLLFFQYYQLSNTGQDTISQMEERLGNTSQELQSLQVQNIKLAGSLQHVAEKLCRELYNKAGAHRCSPCTEQWKWHGDNCYQFYKDSKSWEDCKYFCLSENSTMLKINKQEDLEFAASQSYSEFFYSYWTGLLRPDSGKAWLWMDGTPFTSELFHIIIDVTSPRSRDCVAILNGMIFSKDCKELKRCVCERRAGMVKPESLHVPPETLGEGD
partner: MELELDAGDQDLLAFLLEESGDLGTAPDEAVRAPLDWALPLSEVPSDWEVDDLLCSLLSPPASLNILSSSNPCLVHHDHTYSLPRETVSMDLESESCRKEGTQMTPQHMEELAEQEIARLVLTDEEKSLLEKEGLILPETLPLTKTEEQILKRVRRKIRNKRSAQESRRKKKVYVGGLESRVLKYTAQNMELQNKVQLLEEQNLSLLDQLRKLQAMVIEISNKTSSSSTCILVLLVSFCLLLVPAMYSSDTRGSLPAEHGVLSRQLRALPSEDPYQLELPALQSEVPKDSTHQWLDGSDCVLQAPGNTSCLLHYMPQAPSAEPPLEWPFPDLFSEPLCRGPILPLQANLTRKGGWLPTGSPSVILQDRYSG
B4: Zinc finger protein 544 (Homo sapiens), Q6NX49 (parent)
chain: MEARSMLVPPQASVCFEDVAMAFTQEEWEQLDLAQRTLYREVTLETWEHIVSLGLFLSKSDVISQLEQEEDLCRAEQEAPRDWKATLEENRLNSEKDRAREELSHHVEVYRSGPEEPPSLVLGKVQDQSNQLREHQENSLRFMVLTSERLFAQREHCELELGGGYSLPSTLSLLPTTLPTSTGFPKPNSQVKELKQNSAFINHEKNGADGKHCESHQCARAFCQSIYLSKLGNVETGKKNPYEYIVSGDSLNYGSSLCFHGRTFSVKKSDDCKDYGNLFSHSVSLNEQKPVHFGKSQYECDECRETCSESLCLVQTERSGPGETPFRCEERCAAFPMASSFSDCNIIQTTEKPSVCNQCGKSFSCCKLIHQRTHTGEKPFECTQCGKSFSQSYDLVIHQRTHTGEKPYECDLCGKSFTQRSKLITHQRIHTGEKPYQCIECRKSFRWNSNLIVHQRIHTGEKPYECTHCGKSFSQSYELVTHKRTHTGEKPFKCTQCGKSFSQKYDLVVHQRTHTGEKPYECNLCGKSFSQSSKLITHQRIHTGEKPYQCIECGKSFRWNSNLVIHQRIHTGEKPYDCTHCGKSFSQSYQLVAHKRTHTGEKPYECNECGKAFNRSTQLIRHLQIHTGEKPYKCNQCNKAFARSSYLVMHQRTHTGEKPFECSQCGKAFSGSSNLLSHHRIHSGEKPYECSDCGKSFRQQSQLVVHRRTHTGEKP
B5: Ubl carboxyl-terminal hydrolase 18 (Homo sapiens), Q9UMW8 (parent)
chain: MSKAFGLLRQICQSILAESSQSPADLEEKKEEDSNMKREQPRERPRAWDYPHGLVGLHNIGQTCCLNSLIQVFVMNVDFTRILKRITVPRGADEQRRSVPFQMLLLLEKMQDSRQKAVRPLELAYCLQKCNVPLFVQHDAAQLYLKLWNLIKDQITDVHLVERLQALYTIRVKDSLICVDCAMESSRNSSMLTLPLSLFDVDSKPLKTLEDALHCFFQPRELSSKSKCFCENCGKKTRGKQVLKLTHLPQTLTIHLMRFSIRNSQTRKICHSLYFPQSLDFSQILPMKRESCDAEEQSGGQYELFAVIAHVGMADSGHYCVYIRNAVDGKWFCFNDSNICLVSWEDIQCTYGNPNYHWQETAYLLVYMKMEC
B6: Ornithine decarboxylase antizyme 3 (Homo sapiens), Q9UMX2 (parent)
chain: MPCKRCRPSVYSLSYIKRGKTRNYLYPIWSPYAYYLYCYKYRITLREKMLPRCYKSITYKEEEDLTLQPRSCLQCSESLVGLQEGKSTEQGNHDQLKELYSAGNLTVLATDPLLHQDPVQLDFHFRLTSQTSAHWHGLLCDRRLFLDIPYQALDQGNRESLTATLEYVEEKTNVDSVFVNFQNDRNDRGALLRAFSYMGFEVVRPDHPALPPLDNVIFMVYPLERDVGHLPSEPP
B7: Aminoacylase-1 (Homo sapiens), Q03154 (parent)
chain: MTSKGPEEEHPSVTLFRQYLRIRTVQPKPDYGAAVAFFEETARQLGLGCQKVEVAPGYVVTVLTWPGTNPTLSSILLNSHTDVVPVFKEHWSHDPFEAFKDSEGYIYARGAQDMKCVSIQYLEAVRRLKVEGHRFPRTIHMTFVPDEEVGGHQGMELFVQRPEFHALRAGFALDEGIANPTDAFTVFYSERSPWWVRVTSTGRPGHASRFMEDTAAEKLHKVVNSILAFREKEWQRLQSNPHLKEGSVTSVNLTKLEGGVAYNVIPATMSASFDFRVAPDVDFKAFEEQLQSWCQAAGEGVTLEFAQKWMHPQVTPTDDSNPWWAAFSRVCKDMNLTLEPEIMPAATDNRYIRAVGVPALGFSPMNRTPVLLHDHDERLHEAVFLRGVDIYTRLLPALASVPALPSDS
partner: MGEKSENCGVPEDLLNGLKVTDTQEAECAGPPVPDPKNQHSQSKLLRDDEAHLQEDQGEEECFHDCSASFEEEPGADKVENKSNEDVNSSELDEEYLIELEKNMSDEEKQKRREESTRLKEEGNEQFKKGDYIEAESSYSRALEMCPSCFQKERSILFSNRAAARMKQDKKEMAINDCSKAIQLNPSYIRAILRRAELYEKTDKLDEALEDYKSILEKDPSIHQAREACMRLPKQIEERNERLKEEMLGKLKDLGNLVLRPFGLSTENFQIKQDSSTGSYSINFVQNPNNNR
B8: Ubiquitin-conjugating enzyme E2 E3 (Homo sapiens), Q969T4 (parent)
chain: MSSDRQRSDDESPSTSSGSSDADQRDPAAPEPEEQEERKPSATQQKKNTKLSSKTTAKLSTSAKRIQKELAEITLDPPPNCSAGPKGDNIYEWRSTILGPPGSVYEGGVFFLDITFSSDYPFKPPKVTFRTRIYHCNINSQGVICLDILKDNWSPALTISKVLLSICSLLTDCNPADPLVGSIATQYLTNRAEHDRIARQWTKRYAT
partner: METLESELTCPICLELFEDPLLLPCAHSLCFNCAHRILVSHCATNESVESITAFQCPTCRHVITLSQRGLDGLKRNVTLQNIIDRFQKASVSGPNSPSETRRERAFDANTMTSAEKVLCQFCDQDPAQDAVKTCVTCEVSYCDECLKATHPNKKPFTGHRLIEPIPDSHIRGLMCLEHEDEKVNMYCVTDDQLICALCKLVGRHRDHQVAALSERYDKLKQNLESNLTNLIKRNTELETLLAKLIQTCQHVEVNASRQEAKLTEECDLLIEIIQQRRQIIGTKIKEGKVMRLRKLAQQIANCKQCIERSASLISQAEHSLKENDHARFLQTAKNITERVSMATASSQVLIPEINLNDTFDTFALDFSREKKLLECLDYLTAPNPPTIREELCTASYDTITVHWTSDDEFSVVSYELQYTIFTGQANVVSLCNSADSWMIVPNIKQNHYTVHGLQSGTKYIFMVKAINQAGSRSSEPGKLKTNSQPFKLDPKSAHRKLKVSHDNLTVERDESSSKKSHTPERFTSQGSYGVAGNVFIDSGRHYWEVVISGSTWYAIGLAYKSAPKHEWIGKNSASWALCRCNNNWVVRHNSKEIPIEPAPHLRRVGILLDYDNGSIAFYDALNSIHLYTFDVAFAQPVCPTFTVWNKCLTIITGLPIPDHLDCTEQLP
B9: Protein PALS1 (Homo sapiens), Q8N3R9 (parent)
chain: MTTSHMNGHVTEESDSEVKNVDLASPEEHQKHREMAVDCPGDLGTRMMPIRRSAQLERIRQQQEDMRRRREEEGKKQELDLNSSMRLKKLAQIPPKTGIDNPMFDTEEGIVLESPHYAVKILEIEDLFSSLKHIQHTLVDSQSQEDISLLLQLVQNKDFQNAFKIHNAITVHMNKASPPFPLISNAQDLAQEVQTVLKPVHHKEGQELTALLNTPHIQALLLAHDKVAEQEMQLEPITDERVYESIGQYGGETVKIVRIEKARDIPLGATVRNEMDSVIISRIVKGGAAEKSGLLHEGDEVLEINGIEIRGKDVNEVFDLLSDMHGTLTFVLIPSQQIKPPPAKETVIHVKAHFDYDPSDDPYVPCRELGLSFQKGDILHVISQEDPNWWQAYREGDEDNQPLAGLVPGKSFQQQREAMKQTIEEDKEPEKSGKLWCAKKNKKKRKKVLYNANKNDDYDNEEILTYEEMSLYHQPANRKRPIILIGPQNCGQNELRQRLMNKEKDRFASAVPHTTRSRRDQEVAGRDYHFVSRQAFEADIAAGKFIEHGEFEKNLYGTSIDSVRQVINSGKICLLSLRTQSLKTLRNSDLKPYIIFIAPPSQERLRALLAKEGKNPKPEELREIIEKTREMEQNNGHYFDTAIVNSDLDKAYQELLRLINKLDTEPQWVPSTWLR
partner: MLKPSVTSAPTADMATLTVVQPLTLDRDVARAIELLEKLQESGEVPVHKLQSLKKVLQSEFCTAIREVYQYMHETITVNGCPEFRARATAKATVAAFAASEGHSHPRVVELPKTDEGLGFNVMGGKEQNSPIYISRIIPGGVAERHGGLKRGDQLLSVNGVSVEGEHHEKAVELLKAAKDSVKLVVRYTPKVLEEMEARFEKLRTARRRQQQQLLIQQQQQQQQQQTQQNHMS

Variants of: B1
Conditions: with clua1_human CLUAP1, Q96AJ1

effect of a mutation on the interaction	Variant
with no effect	D177N

Variants of: B2
Conditions: with bend7_human BEND7, Q8N7W2

effect of a mutation on the interaction	Variant
with no effect	R48C

Variants of: B3
Conditions: with creb3_human CREB3, O43889

effect of a mutation on the interaction	Variant
with no effect	G26A
with no effect	P272S

Variants of: B4
Conditions: with traf2_human TRAF2, Q12933
Chain of traf2_human TRAF2, Q12933 (Q12933 whole entry): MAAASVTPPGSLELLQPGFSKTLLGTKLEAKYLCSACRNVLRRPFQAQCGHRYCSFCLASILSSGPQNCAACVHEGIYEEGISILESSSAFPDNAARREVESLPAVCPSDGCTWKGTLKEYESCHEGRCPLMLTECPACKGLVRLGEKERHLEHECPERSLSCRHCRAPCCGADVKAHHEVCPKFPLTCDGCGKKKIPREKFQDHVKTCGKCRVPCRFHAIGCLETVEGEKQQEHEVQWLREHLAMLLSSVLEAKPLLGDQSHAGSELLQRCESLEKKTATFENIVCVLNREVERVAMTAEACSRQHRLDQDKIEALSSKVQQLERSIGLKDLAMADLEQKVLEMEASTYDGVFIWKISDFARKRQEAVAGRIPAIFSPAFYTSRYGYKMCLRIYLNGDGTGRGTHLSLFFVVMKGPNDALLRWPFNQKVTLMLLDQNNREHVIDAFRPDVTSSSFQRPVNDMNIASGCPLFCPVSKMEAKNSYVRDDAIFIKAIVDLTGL

effect of a mutation on the interaction	Variant
disrupting interaction strength	K406M

Variants of: B5
Conditions: with isg15_human ISG15, P05161
Chain of isg15_human ISG15, P05161 (P05161 whole entry): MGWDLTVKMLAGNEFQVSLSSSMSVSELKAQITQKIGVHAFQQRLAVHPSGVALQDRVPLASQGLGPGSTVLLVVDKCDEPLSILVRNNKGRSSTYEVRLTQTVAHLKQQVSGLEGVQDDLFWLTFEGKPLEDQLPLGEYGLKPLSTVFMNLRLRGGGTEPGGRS

effect of a mutation on the interaction	Variant
with no effect	T169M

Variants of: B6
Conditions: with azin1_human AZIN1, O14977
Chain of azin1_human AZIN1, O14977 (O14977 whole entry): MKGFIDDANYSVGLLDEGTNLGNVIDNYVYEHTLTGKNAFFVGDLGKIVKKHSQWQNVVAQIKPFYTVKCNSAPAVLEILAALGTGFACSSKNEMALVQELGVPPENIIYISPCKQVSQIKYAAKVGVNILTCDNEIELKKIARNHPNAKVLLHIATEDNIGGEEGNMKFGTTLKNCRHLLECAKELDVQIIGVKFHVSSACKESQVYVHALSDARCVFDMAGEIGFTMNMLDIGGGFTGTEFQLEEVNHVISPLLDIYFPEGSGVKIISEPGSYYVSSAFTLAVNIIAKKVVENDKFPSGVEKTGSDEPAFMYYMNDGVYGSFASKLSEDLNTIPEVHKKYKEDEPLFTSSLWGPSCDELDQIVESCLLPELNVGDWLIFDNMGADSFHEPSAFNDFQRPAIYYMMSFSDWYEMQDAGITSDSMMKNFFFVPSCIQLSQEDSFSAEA

effect of a mutation on the interaction	Variant
with no effect	R193Q
with no effect	V174A

Variants of: B7
Conditions: with ttc1_human TTC1, Q99614

effect of a mutation on the interaction	Variant
disrupting interaction strength	R197W

Variants of: B8
Conditions: with tri18_human MID1, O15344

effect of a mutation on the interaction	Variant
with no effect	S117T

Variants of: B9
Conditions: with lin7a_human LIN7A

effect of a mutation on the interaction	Variant
with no effect	S141Y
